The supplement of paper PMC10567573
± gives the standard deviation.

Test: protein stability index of a GFP-peptide fusion (GPS, HEK-293T) (PSI 1-6); higher = more stable
Details: c terminus: a fixed tail appended
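Also: 24-mer peptide tiles fused after GFP, lentivirally expressed, FACS-sorted into six equal bins by GFP/DsRed ratio, decoded by Illumina sequencing, PSI is the read-weighted mean bin number.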

## VACFLTRGDLWISWEEGMKVFEEL [CRY1]
treatment: DMSO
  protein stability index: 2.67 ± 0.71
treatment: MLN4924 1 uM, 8 h
  protein stability index: 2.33 ± 0.39

## LEKVECTPSQEHLKHQTVYRLLKC [FEM1A]
treatment: DMSO
  protein stability index: 2.85 ± 0.26
treatment: MLN4924 1 uM, 8 h
  protein stability index: 3.07 ± 0.38

## CITEDGRTVAVGDIVWGKIHGFPW [PWWP2B]
treatment: DMSO
  protein stability index: 2.49 ± 0.5
treatment: MLN4924 1 uM, 8 h
  protein stability index: 2.28 ± 0.45

## YHLEKQTALLGGPRRCHSAPPQGS [PLEKHN1]
treatment: DMSO
  protein stability index: 3.28 ± 0.036
treatment: MLN4924 1 uM, 8 h
  protein stability index: 3.14 ± 0.53

## IDYGANVNQPNNNGFTPLHFAAAS [ANKRD44]
treatment: DMSO
  protein stability index: 3.1 ± 0.19
treatment: MLN4924 1 uM, 8 h
  protein stability index: 3 ± 0.26

## QCGETMKETVNVKTVCGYYTSAGT [GMCL1]
treatment: DMSO
  protein stability index: 3.7 ± 0.22
treatment: MLN4924 1 uM, 8 h
  protein stability index: 3.77 ± 0.28

## TQGCHPAWEPRSESQASRKEEGLP [ZNF8]
treatment: DMSO
  protein stability index: 4.89 ± 0.25
treatment: MLN4924 1 uM, 8 h
  protein stability index: 4.96 ± 0.18

## SSQPQDNSQVHRETEDVDYGETDF [TMEM40]
treatment: DMSO
  protein stability index: 5.58 ± 0.26
treatment: MLN4924 1 uM, 8 h
  protein stability index: 5.64 ± 0.3

## VFCREGPTHQAHTVGFLDEAIQPY [TRIM15]
treatment: DMSO
  protein stability index: 2.85 ± 0.31
treatment: MLN4924 1 uM, 8 h
  protein stability index: 2.83 ± 0.24

## KRSVYIDARDEELEKDTMDNWDEK [ZC3H15]
treatment: DMSO
  protein stability index: 4.98 ± 0.31
treatment: MLN4924 1 uM, 8 h
  protein stability index: 4.88 ± 0.24

## VGYTRGLHVWQITWAMRQRGTHAV [SPSB1]
treatment: DMSO
  protein stability index: 2.37 ± 0.52
treatment: MLN4924 1 uM, 8 h
  protein stability index: 2.55 ± 0.52

## EQYDLATKRVRQLLDLDPEVECLK [GOLPH3]
treatment: DMSO
  protein stability index: 3.96 ± 0.28
treatment: MLN4924 1 uM, 8 h
  protein stability index: 3.97 ± 0.43

## DCLKKFNARRKLKGAILTTMLATR [CAMK2D]
treatment: DMSO
  protein stability index: 3.04 ± 0.78
treatment: MLN4924 1 uM, 8 h
  protein stability index: 3.49 ± 0.37

## HDFFLQGFTPDRLSSSCCHTVPDF [PLK2]
treatment: DMSO
  protein stability index: 2.71 ± 0.23
treatment: MLN4924 1 uM, 8 h
  protein stability index: 2.73 ± 0.24

## QDEPRQGCQPEDRRRRIIINVGGI [KCNG1]
treatment: DMSO
  protein stability index: 3.92 ± 0.33
treatment: MLN4924 1 uM, 8 h
  protein stability index: 4.02 ± 0.2

## LLDNPLCADVLFILQDQEHIFAHR [RHOBTB1]
treatment: DMSO
  protein stability index: 2.36 ± 0.35
treatment: MLN4924 1 uM, 8 h
  protein stability index: 2.17 ± 0.11

## LRTTVHHAFPVVTENRGNEKEFMK [CLCN6]
treatment: DMSO
  protein stability index: 4.05 ± 0.27
treatment: MLN4924 1 uM, 8 h
  protein stability index: 4.38 ± 0.098

## DDCDDDDDDAQILPSPVQACSEDS [DRICH1]
treatment: DMSO
  protein stability index: 5.48 ± 0.46
treatment: MLN4924 1 uM, 8 h
  protein stability index: 5.62 ± 0.24

## TYLCERCQPRNLDKERAVLLQRRK [KMT2E]
treatment: DMSO
  protein stability index: 2.57 ± 0.48
treatment: MLN4924 1 uM, 8 h
  protein stability index: 3.32 ± 0.54

## EDLQSIIYKLEEHEEFFPAFQAFT [CEP70]
treatment: DMSO
  protein stability index: 2.38 ± 0.18
treatment: MLN4924 1 uM, 8 h
  protein stability index: 2.17 ± 0.31

## DRVILSSSTSCLMPSKLFAGLVHV [CRYL1]
treatment: DMSO
  protein stability index: 2.27 ± 0.64
treatment: MLN4924 1 uM, 8 h
  protein stability index: 2.58 ± 0.49

## EGPKRELGVRRPGGAGKEGVRVNN [TCF25]
treatment: DMSO
  protein stability index: 4.7 ± 0.12
treatment: MLN4924 1 uM, 8 h
  protein stability index: 5.04 ± 0.16

## FMQTGYNKLCDWWSLGVIMYEMLI [STK38L]
treatment: DMSO
  protein stability index: 2.77 ± 0.82
treatment: MLN4924 1 uM, 8 h
  protein stability index: 2.47 ± 0.64

## RQGNPSWKKQQKCDECGKIFSQSS [ZNF396]
treatment: DMSO
  protein stability index: 3.57 ± 0.33
treatment: MLN4924 1 uM, 8 h
  protein stability index: 3.92 ± 0.11

## CEHECVNADGSYLCQCHEGFALNP [MATN2]
treatment: DMSO
  protein stability index: 4.77 ± 0.15
treatment: MLN4924 1 uM, 8 h
  protein stability index: 4.8 ± 0.4

## VARILIDLCSDVNVCSLLAQTPLH [RIPK4]
treatment: DMSO
  protein stability index: 2.65 ± 0.26
treatment: MLN4924 1 uM, 8 h
  protein stability index: 2.57 ± 0.4

## ELEEDDGHGAEQAAAFPTEDSRTS [EHMT1]
treatment: DMSO
  protein stability index: 5.65 ± 0.17
treatment: MLN4924 1 uM, 8 h
  protein stability index: 5.7 ± 0.088

## HLQLLGAVCMFLASKLKETSPLTA [CCND2]
treatment: DMSO
  protein stability index: 2.48 ± 0.34
treatment: MLN4924 1 uM, 8 h
  protein stability index: 2.36 ± 0.25

## TAFCTHVFPETAFIAVTSYQNHKI [TBX5]
treatment: DMSO
  protein stability index: 2.31 ± 0.41
treatment: MLN4924 1 uM, 8 h
  protein stability index: 2.27 ± 0.42

## LLRDPADASEAHESSSRGEAGAPG [CHGB]
treatment: DMSO
  protein stability index: 5.45 ± 0.28
treatment: MLN4924 1 uM, 8 h
  protein stability index: 5.34 ± 0.24

## KRASAPTFDNDYSLSELLSQLDSG [RIPK4]
treatment: DMSO
  protein stability index: 3.75 ± 0.37
treatment: MLN4924 1 uM, 8 h
  protein stability index: 3.56 ± 0.15

## LMQVHASRSNNMGIVGGFTQMIRE [SLC25A25]
treatment: DMSO
  protein stability index: 2.75 ± 0.21
treatment: MLN4924 1 uM, 8 h
  protein stability index: 2.94 ± 0.24

## EAAAAEEGLRELQRSRRLCHEDVE [DAPK3]
treatment: DMSO
  protein stability index: 5.29 ± 0.23
treatment: MLN4924 1 uM, 8 h
  protein stability index: 5.4 ± 0.45

## VCVRAHESVVKSEDFSLPAYMDRR [COX4I1]
treatment: DMSO
  protein stability index: 3.1 ± 0.43
treatment: MLN4924 1 uM, 8 h
  protein stability index: 3.14 ± 0.24

## AAEEPGVRGLLASLFAFKSFRENW [C2CD2L]
treatment: DMSO
  protein stability index: 2.44 ± 0.19
treatment: MLN4924 1 uM, 8 h
  protein stability index: 2.65 ± 0.032

## TQHFVQENYLEYRQVPGSDPACYE [MAGEA3]
treatment: DMSO
  protein stability index: 4.26 ± 0.081
treatment: MLN4924 1 uM, 8 h
  protein stability index: 4.34 ± 0.12

## GPAAAAAPSLEAPKPSGLEPGPAA [KCTD13]
treatment: DMSO
  protein stability index: 5.4 ± 0.11
treatment: MLN4924 1 uM, 8 h
  protein stability index: 5.39 ± 0.29

## KCGNCQTKLHDIDGVPHLILIASR [KMT5A]
treatment: DMSO
  protein stability index: 2.35 ± 0.46
treatment: MLN4924 1 uM, 8 h
  protein stability index: 2.51 ± 0.41

## RAEQDSEVGPQEINKEELEGNSMR [GMCL1]
treatment: DMSO
  protein stability index: 5.6 ± 0.26
treatment: MLN4924 1 uM, 8 h
  protein stability index: 5.63 ± 0.14

## NTPMEETVRAMTHVINQGMAMYWG [KCNAB2]
treatment: DMSO
  protein stability index: 2.92 ± 0.39
treatment: MLN4924 1 uM, 8 h
  protein stability index: 3.13 ± 0.96

## QRKKWVDLAWMITFYVRFFLTYVP [FADS1]
treatment: DMSO
  protein stability index: 2.79 ± 0.29
treatment: MLN4924 1 uM, 8 h
  protein stability index: 2.83 ± 0.44

## LAQFPNTLLGNPKKRMRYFDPLRN [KCNA1]
treatment: DMSO
  protein stability index: 2.45 ± 0.12
treatment: MLN4924 1 uM, 8 h
  protein stability index: 2.48 ± 0.12

## LRVWDMFFCEGVKIIFRVGLVLLK [TBC1D10A]
treatment: DMSO
  protein stability index: 2.6 ± 0.38
treatment: MLN4924 1 uM, 8 h
  protein stability index: 2.37 ± 0.29

## KLSPKKTWEGFIGGFFATVVFGLL [CDS2]
treatment: DMSO
  protein stability index: 2.33 ± 0.43
treatment: MLN4924 1 uM, 8 h
  protein stability index: 2.01 ± 0.28

## ADFGRLVNLQHLDLLNNKLVTLPV [LRRC59]
treatment: DMSO
  protein stability index: 2.3 ± 0.2
treatment: MLN4924 1 uM, 8 h
  protein stability index: 2.37 ± 0.21
